Experimental data reported in the DeepSol protein solubility set.

Experiment: soluble on expression in E. coli; label from the status in PepcDB or PDB records

Question: Which “soluble on expression in E. coli” value does the source give for “MSTATSKFLSYVLRHAPESIGLVLDSQGWADVADLLAKANASGTPLDEAGLRAVVAESDKKRFTLSEDGRRIRAAQGHSVKVDLGQPPVEPPPQLFHGTATRFLEPILREGLRPGERQQVHLSADRTTALAVGQRHGKPVVLIVDAGQMFADGCRFYLADNGVWLTDAVPFSYLTVSADSSAENDRLEHHHHHH” here?
Answer: soluble

Question: For “MSTDPEEFDQAETLDQLAYEIILLTRYGVQNTPTNKREAIMDRSALILLTRLDAQGPMTVNELAESFGLNVSTVHRQLKAAIANGLIEVVDDQACPAKLHRPTELGKEKLQQELLARQQDLTRILHDWDEEDIKTHAKLLRKHNESLEEYLDMKWPRP”, which “soluble on expression in E. coli” value is on record?
Answer: not soluble

Question: For “MSTDPTPPQLTRRTAKVSIDNQTGSHFKFQVTHKYTGWDADKSDVVMFQPDEVKEIFKSVAYNTGFLTTGVDNWLVDGTMVQERTEVDNKGHQIGKKSYIEHAKFISDSRSWKQHMLTAEDDGKTTTIRVFPTEIHFISPSGESTTTFTKY”, which “soluble on expression in E. coli” value is on record?
Answer: not soluble

Question: For “MSTETHYKRQLFVILKLFIIMSFMTKCPKCPTYESKKTTNVYRHLREVHNASEAEVDQFRIQRKEGKSLTTKGSGAWKCPVCELVIPTEKGLKNHMNQKHRKKPIDPSTITLATTSPTMVSPPPKRIQLPKSTEKSLVSSVATVRAQPTQKPGGRYKCPVENCTFFKTRKELALHFSEKHDPGSELETMSFETETEFKIWLTCRQEETCSSMQISLSSHDGNRITHFRLCRHEGGQLSLGATKKGATFELSLGATN”, which “soluble on expression in E. coli” value is on record?
Answer: not soluble

Question: With “MSTGDSFETRFEKMDNLLRDPKSEVNSDCLLDGLDALVYDLDFPALRKNKNIDNFLSRYKDTINKIRDLRMKAEDYEVVKVIGRGAFGEVQLVRHKSTRKVYAMKLLSKFEMIKRSDSAFFWEERDIMAFANSPWVVQLFYAFQDDRYLYMVMEYMPGGDLVNLMSNYDVPEKWARFYTAEVVLALDAIHSMGFIHRDVKPDNMLLDKSGHLKLADFGTCMKMNKEGMVRCDTAVGTPDYISPEVLKSQGGDGYYGRECDWWSVGVFLYEMLVGDTPFYADSLVGTYSKIMNHKNSLTFPDDNDISKEAKNLICAFLTDREVRLGRNGVEEIKRHLFFKNDQWAWETLRDTVAPVVPDLSSDIDTSNFDDLEEDKGEEETFPIPKAFVGNQLPFVGFTYYSNRRYL” as the sequence, how does the “soluble on expression in E. coli” value read?
Answer: soluble

Question: Which “soluble on expression in E. coli” value does the source give for “MSTIHEFPKNYERFIAQGEEALVEHNQIAALENFQQAYQLQQTPPVNQKIVQLLLEMGEADEALALAEAFQESYFENLETAAIYMQIYSQSRRFIEGYILLKQLLQTKKITLAQQKTLEQQLMQVEEAYQQLETQQIQAIKRNLLVSDQLPVYQQLANIKTSLYLPKPVFVEVAKDLVMNQALSYFAREWFIEELALLQFSEPLTFLWYDNQPQTVLLEGKTGPLNTPIYSEICTELRNRLENDDPIMLQHLEEEIRLHLAYLYPLAETVISDPTIWVLGYLATYYPEYIEKELTEAKGHQIDAVQKVQQAIRTAFTQIML” here?
Answer: soluble

Question: With “MSTKADMAIAFHDKGYNCAQAVACSFCQEFGVAEEEMFRIAEGFGLGMGMMEVCGALSGMMMIIGLENSVGEPEKGRLTKGDTYRKVKEYVKKFQEQNGSYLCRELKGVETGKVLRSCPDCIRDAVALTEEYLAAQKQN” as the sequence, how does the “soluble on expression in E. coli” value read?
Answer: not soluble

Question: Which “soluble on expression in E. coli” value does the source give for “MSTKVKKTTQLKQMLNSKDLEFIMEAHNGLSARIVQEAGFKGIWGSGLSVSAQLGVRDSNEASWTQVVEVLEFMSDASDVPILLDADTGYGNFNNARRLVRKLEDRGVAGACLEDKLFPKTNSLHDGRAQPLADIEEFALKIKACKDSQTDPDFCIVARVEAFIAGWGLDEALKRAEAYRNAGADAILMHSKKADPSDIEAFMKAWNNQGPVVIVPTKYYKTPTDHFRDMGVSMVIWANHNLRASVSAIQQTTKQIYDDQSLVNVEDKIVSVKEIFRLQRDDELVQAEDKYLPKN” here?
Answer: soluble

Question: Which “soluble on expression in E. coli” value does the source give for “MSTLGHQYDNSLVSNAFGFLRLPMNFQPYDSDADWVITGVPFDMATSGRAGGRHGPAAIRQVSTNLAWEHNRFPWNFDMRERLNVVDCGDLVYAFGDAREMSEKLQAHAEKLLAAGKRMLSFGGDHFVTLPLLRAHAKHFGKMALVHFDAHTDTYANGCEFDHGTMFYTAPKEGLIDPNHSVQIGIRTEFDKDNGFTVLDACQVNDRSVDDVIAQVKQIVGDMPVYLTFDIDCLDPAFAPGTGTPVIGGLTSDRAIKLVRGLKDLNIVGMDVVEVAPAYDQSEITALAAATLALEMLYIQAAKKGE” here?
Answer: soluble

Question: With “MSTNITFHASALTRSERTELRNQRGLTIWLTGLSASGKSTLAVELEHQLVRDRRVHAYRLDGDNIRFGLNKDLGFSEADRNENIRRIAEVAKLFADSNSIAITSFISPYRKDRDTARQLHEVATPGEETGLPFVEVYVDVPVEVAEQRDPKGLYKKAREGVIKEFTGISAPYEAPANPEVHVKNYELPVQDAVKQIIDYLDTKGYLPAKKE” as the sequence, how does the “soluble on expression in E. coli” value read?
Answer: soluble
